# B1: L. minor alcohol dehydrogenase: R-specific alcohol dehydrogenase from Lactobacillus minor, SEQ ID NO: 4, overexpressed in Escherichia coli RB 791 (protein, listed as Lactobacillus sp.)
# chain: MRGSHHHHHHGSMTDRLKGKVAIVTGGTLGIGLAIADKFVEEGAKVVITGRHADVGEKAARSIGGTDVIRFVQHDASDETGWTKLFDTTEEAFGPVTTVVNNAGIAVSKSVEDTTTEEWRKLLSVNLDGVFFGTRLGIQRMKNKGLGASIINMSSIEGEVGDPALGAYNASKGAVRIMSKSAALDCALKDYDVRVNTVHPGYIKTPLVDDLEGAEEMMSQRTKTPMGHIGEPNDIAWICVYLASDESKFATGAEFVVDGGYTAQ
# Key:
# Assay type in all cases: biochemical, Lactobacillus minor
# [1] = pH optimum of the enzymic reaction; details: 30° C.
# Protocol: As in the standard assay, the concentration of ethyl 4-chloro-3-oxo-butanoate and of NADPH was 10 mM and 0.19 mM, respectively. The reaction was determined at 30° C.
# [2] = Temperature optimum of the enzymic reaction
# Protocol: The optimal assay temperature was determined by measuring the enzyme activity from 25° C. to 60° C. The assay mixture corresponded to the standard concentration of ethyl 4-chloro-3-oxo-butanoate and NADPH.
# [3] = Temperature stability of L. minor alcohol dehydrogenase; details: for temperature up to which the enzyme is stable: 30 min incubation; for Activity in % (n = 4): measured at 30° C.
# Protocol: The temperature stability for the range from 25° C. to 50° C. was determined similarly to the manner described in A.). For this purpose, in each case a 1:100 dilution of the purified enzyme was incubated at the particular temperature for 30 min and then measured at 30° C. using the above assay procedure. Here too, the starting value used was the measured value obtained immediately after diluting the enzyme in triethanolamine buffer 50 mM pH=7.0. This value was also set here as 100% value. L. minor alcohol dehydrogenase is stable up to a temperature of 40° C. Thereafter, the activity rapidly declines.
# [4] = pH stability of cloned L. minor alcohol dehydrogenase
# Protocol: The activity of the enzyme as a function of storage in buffers with different pH values in the range from pH 4 to 11 was studied. For this purpose, various buffers (50 mM) in the range from pH 4 to 11 were prepared and the enzyme purified in Example 2 was diluted 1:100 therein and incubated for 30 min. All buffers contained 1 mM MgCl2. 10 μl of this were then used in the normal enzyme assay (triethanolamine buffer 100 mM pH=7.0, 1 mM MgCl2, 10 mM ethyl 4-chloro-3-oxo-butanoate and 0.19 mM NADPH). The reaction was monitored at 30° C. and 340 nm for 1 min.
# The starting value here is the measured value obtained immediately after diluting the enzyme in triethanolamine buffer 50 mM pH=7.0. Under predefined conditions, this value corresponded to a change in extinction of 0.20/min and was set as 100% value, with all subsequent measured values being related to this value.
# [5] = Enzyme obtainment and purification: activity of crude extract and purified enzyme; details: for volume activity: 25° C.
# Protocol: The enzyme was obtained by culturing the strain with the highest enzymic activity in a fermenter (fed batch, 10 l) and inducing it at 40 OD500 with 1 mM IPTG. After 18 h, the cells were harvested, taking up 300 g of cells in 3 l of Kpi buffer (50 mM, pH=7, 1 mM MgCl2) and disrupted subsequently by means of a French press (Gaullin, Siemens).
# To characterize the enzyme, a portion of the enzyme obtained was purified by means of […] chromatography on Q-Sepharose ff (fast flow). For this purpose, the column used was equilibrated with 50 mM Kpi buffer pH=7.0, 1 mM MgCl2. After application of the crude extract to the column and brief washing with equilibration buffer, the enzyme was eluted with an increasing linear salt gradient (0-1M NaCl, 1 ml/min) at a salt concentration of about 0.3 M NaCl. […] The enzyme purified in this way thus has a specific activity of approximately 35 to 40 U/mg of protein.
# All enzymic activities were determined at 25° C. The enzyme activity was calculated as follows: • Calculation: 1 unit=conversion of 1 μmol of substrate per min • Lambert-Beer law • NADPH decrease was monitored at 340 nm (see enzymic assay mixture)=ΔE/min • N=enzyme dilution factor • V=enzyme volume in ml (0.01) • Vcuvette=cuvette volume=1 ml • d=cuvette light path=1 cm • eNADPH NADPH extinction coefficient=6.22 [mM^−1*cm^−1] • Activity=(ΔE/min*N*Vcuvette)/(eNADPH*V*d)
# Protein determination was carried out according to Bradford (Bio-Rad Laboratories GmbH, Protein Assay).
# [6] = system: L. minor alcohol dehydrogenase; assay: Enzyme stability under process conditions; details: for several days
# Protocol: The stability of the enzyme under process conditions was studied by diluting L. minor alcohol dehydrogenase 1:100 with the solvent mixtures used in the two-phase system, followed by incubation at room temperature. 10 μl of the enzyme solution were then used in the standard assay mixture. Table 8 depicts the enzyme activities as a % of the starting value.
# [7] = crude extract after fermentation and French press
molecule,measurement,setting,value
B1,Activity in U/ml of undiluted enzyme,"[1]; assay at pH 4, sodium acetate/acetic acid",85 U/ml
same,Activity in U/ml of undiluted enzyme,"[1]; assay at pH 4.5, sodium acetate/acetic acid",132 U/ml
same,Activity in U/ml of undiluted enzyme,"[1]; assay at pH 5, MES/NaOH",218 U/ml
same,Activity in U/ml of undiluted enzyme,"[1]; assay at pH 5.5, MES/NaOH",240 U/ml
same,Activity in U/ml of undiluted enzyme,"[1]; assay at pH 6, triethanolamine/NaOH",381 U/ml
same,Activity in U/ml of undiluted enzyme,"[1]; assay at pH 6.5, triethanolamine/NaOH",349 U/ml
same,Activity in U/ml of undiluted enzyme,"[1]; assay at pH 7, triethanolamine/NaOH",510 U/ml
same,Activity in U/ml of undiluted enzyme,"[1]; assay at pH 7.5, tris/HCl",707 U/ml
same,Activity in U/ml of undiluted enzyme,"[1]; assay at pH 8, tris/HCl",585 U/ml
same,Activity in U/ml of undiluted enzyme,"[1]; assay at pH 8.5, tris/HCl",486 U/ml
same,Activity in U/ml of undiluted enzyme,"[1]; assay at pH 9, tris/HCl",488 U/ml
same,Activity in U/ml of undiluted enzyme,"[1]; assay at pH 10, glycine/NaOH",131 U/ml
same,Activity in U/ml of undiluted enzyme,"[1]; assay at pH 11, glycine/NaOH",0 U/ml
same,Activity in U/ml of undiluted enzyme,[2]; assay temperature 25° C.,540 U/ml
same,Activity in U/ml of undiluted enzyme,[2]; assay temperature 30° C.,1235 U/ml
same,Activity in U/ml of undiluted enzyme,[2]; assay temperature 35° C.,1968 U/ml
same,Activity in U/ml of undiluted enzyme,[2]; assay temperature 40° C.,1621 U/ml
same,Activity in U/ml of undiluted enzyme,[2]; assay temperature 45° C.,2469 U/ml
same,Activity in U/ml of undiluted enzyme,[2]; assay temperature 50° C.,2469 U/ml
same,Activity in U/ml of undiluted enzyme,[2]; assay temperature 55° C.,2855 U/ml
same,Activity in U/ml of undiluted enzyme,[2]; assay temperature 60° C.,0 U/ml
same,temperature up to which the enzyme is stable,[3],≤ 40 °C
same,temperature up to which the enzyme is stable,[3]; listed as Lactobacillus minor alcohol dehydrogenase,about 40 °C
same,Activity in % (n = 4),[3]; after 30 min at 25° C.,101 ± 3.2%
same,Activity in % (n = 4),[3]; after 30 min at 30° C.,81.2 ± 5.8%
same,Activity in % (n = 4),[3]; after 30 min at 35° C.,67.0 ± 1.6%
same,Activity in % (n = 4),[3]; after 30 min at 37° C.,20.2 ± 2.4%
same,Activity in % (n = 4),[3]; after 30 min at 40° C.,33.4 ± 3.8%
same,Activity in % (n = 4),[3]; after 30 min at 42° C.,0 ± 0%
same,Activity in % (n = 4),[3]; after 30 min at 45° C.,0 ± 0%
same,Activity in % (n = 4),[3]; after 30 min at 50° C.,0 ± 0%
same,Activity in % (n = 2),"[4]; after 30 min at pH 4, sodium acetate/acetic acid 50 mM, 100% = value directly after dilution",87.5 ± 6.5%
same,Activity in % (n = 2),"[4]; after 30 min at pH 4.5, sodium acetate/acetic acid 50 mM",94.5 ± 3.0%
same,Activity in % (n = 2),"[4]; after 30 min at pH 5, MES/NaOH 50 mM",55 ± 5%
same,Activity in % (n = 2),"[4]; after 30 min at pH 5, sodium acetate/acetic acid 50 mM",94.5 ± 1.5%
same,Activity in % (n = 2),"[4]; after 30 min at pH 5.5, KH2PO4/K2PO4 50 mM",96 ± 3%
same,Activity in % (n = 2),"[4]; after 30 min at pH 5.5, MES/NaOH 50 mM",77.1 ± 2.1%
same,Activity in % (n = 2),"[4]; after 30 min at pH 6, KH2PO4/K2PO4 50 mM",100 ± 0%
same,Activity in % (n = 2),"[4]; after 30 min at pH 6, triethanolamine/NaOH 50 mM",100 ± 0%
same,Activity in % (n = 2),"[4]; after 30 min at pH 6.5, KH2PO4/K2PO4 50 mM",97.5 ± 2.5%
same,Activity in % (n = 2),"[4]; after 30 min at pH 6.5, triethanolamine/NaOH 50 mM",100 ± 0%
same,Activity in % (n = 2),"[4]; after 30 min at pH 7, KH2PO4/K2PO4 50 mM",100 ± 0%
same,Activity in % (n = 2),"[4]; after 30 min at pH 7, triethanolamine/NaOH 50 mM",97.9 ± 2.1%
same,Activity in % (n = 2),"[4]; after 30 min at pH 7.5, KH2PO4/K2PO4 50 mM",97.5 ± 7.5%
same,Activity in % (n = 2),"[4]; after 30 min at pH 7.5, tris/HCl 50 mM",94.6 ± 1.3%
same,Activity in % (n = 2),"[4]; after 30 min at pH 8, KH2PO4/K2PO4 50 mM",93.0 ± 3.0%
same,Activity in % (n = 2),"[4]; after 30 min at pH 8, tris/HCl 50 mM",89.2 ± 0%
same,Activity in % (n = 2),"[4]; after 30 min at pH 8.5, KH2PO4/K2PO4 50 mM",102.5 ± 2.5%
same,Activity in % (n = 2),"[4]; after 30 min at pH 8.5, tris/HCl 50 mM",60 ± 4.2%
same,Activity in % (n = 2),"[4]; after 30 min at pH 9, glycine/NaOH 50 mM",76.5 ± 1.5%
same,Activity in % (n = 2),"[4]; after 30 min at pH 9, tris/HCl 50 mM",63.1 ± 4.8%
same,Activity in % (n = 2),"[4]; after 30 min at pH 9.5, glycine/NaOH 50 mM",52.5 ± 7.5%
same,Activity in % (n = 2),"[4]; after 30 min at pH 10, glycine/NaOH 50 mM",52.5 ± 7.5%
same,Activity in % (n = 2),"[4]; after 30 min at pH 11, glycine/NaOH 50 mM",0.0 ± 0%
same,activity per wet mass,[5]; [7],20 000 U/g of wet mass
same,volume activity,[5]; [7],approximately 2000 U/ml
same,activity per wet mass on overexpression in Escherichia coli,[5]; overexpressed in Escherichia coli RB 791,20 000 units/g of wet mass
same,volume activity,"[5]; purified enzyme, Q-Sepharose ff",about 800 U/ml
same,stability in the combination of solvents used in the two-phase system (in words),[6],stable and active

# Reference: US8361765B2, “Enzymic method for the enantioselective reduction of keto compounds” (IEP GmbH, priority 2001, dated 2013)
